T1: His-tagged MPS1 (UniProt P33981 1-857)
T1 sequence (looked up): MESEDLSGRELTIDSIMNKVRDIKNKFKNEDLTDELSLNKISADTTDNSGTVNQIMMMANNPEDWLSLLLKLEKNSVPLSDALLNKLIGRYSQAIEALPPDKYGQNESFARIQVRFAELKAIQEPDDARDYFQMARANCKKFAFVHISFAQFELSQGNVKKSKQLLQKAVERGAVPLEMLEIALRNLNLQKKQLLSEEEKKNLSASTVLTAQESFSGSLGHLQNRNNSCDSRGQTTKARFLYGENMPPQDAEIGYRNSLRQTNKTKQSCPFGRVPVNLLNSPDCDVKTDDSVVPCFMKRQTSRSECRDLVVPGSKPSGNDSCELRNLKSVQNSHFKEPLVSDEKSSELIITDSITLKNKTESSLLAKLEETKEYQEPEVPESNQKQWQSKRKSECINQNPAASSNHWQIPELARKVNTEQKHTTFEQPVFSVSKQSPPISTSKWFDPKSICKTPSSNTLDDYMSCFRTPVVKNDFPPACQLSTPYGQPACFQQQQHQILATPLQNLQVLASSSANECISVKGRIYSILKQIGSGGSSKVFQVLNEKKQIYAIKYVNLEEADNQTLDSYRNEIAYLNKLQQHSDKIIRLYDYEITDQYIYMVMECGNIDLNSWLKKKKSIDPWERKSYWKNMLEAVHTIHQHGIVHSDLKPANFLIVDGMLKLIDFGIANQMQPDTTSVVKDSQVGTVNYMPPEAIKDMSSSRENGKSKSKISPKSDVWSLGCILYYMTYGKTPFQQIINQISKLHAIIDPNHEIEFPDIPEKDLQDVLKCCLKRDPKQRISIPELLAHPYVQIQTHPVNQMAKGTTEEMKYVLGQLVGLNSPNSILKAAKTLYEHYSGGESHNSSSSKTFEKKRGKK

B1: GST-MAD1-NTD (domain or fragment, human, UniProt Q9Y6D9 1-485, looked up)
chain: MEDLGENTMVLSTLRSLNNFISQRVEGGSGLDISTSAPGSLQMQYQQSMQLEERAEQIRSKSHLIQVEREKMQMELSHKRARVELERAASTSARNYEREVDRNQELLTRIRQLQEREAGAEEKMQEQLERNRQCQQNLDAASKRLREKEDSLAQAGETINALKGRISELQWSVMDQEMRVKRLESEKQELQEQLDLQHKKCQEANQKIQELQASQEARADHEQQIKDLEQKLSLQEQDAAIVKNMKSELVRLPRLERELKQLREESAHLREMRETNGLLQEELEGLQRKLGRQEKMQETLVGLELENERLLAKLQSWERLDQTMGLSIRTPEDLSRFVVELQQRELALKDKNSAVTSSARGLEKARQQLQEELRQVSGQLLEERKKRETHEALARRLQKRVLLLTKERDGMRAILGSYDSELTPAEYSPQLTRRMREAEDMVQKVHSHSAEMEAQLSQALEELGGQKQRADMLEMELKMLKSQSS
B2: GST-MAD1-MIM (domain or fragment, human, UniProt Q9Y6D9 485-584, looked up)
chain: SSAEQSFLFSREEADTLRLKVEELEGERSRLEEEKRMLEAQLERRALQGDYDQSRTKVLHMSLNPTSVARQRLREDHSQLQAECERLRGLLRAMERGGTV
B3: MAD2^LARQ (L13A/R133E/Q134A) (natural protein, UniProt Q13257 2-205, looked up)
chain: ALQLSREQGITARGSAEIVAEFFSFGINSILYQRGIYPSETFTRVQKYGLTLLVTTDLELIKYLNNVVEQLKDWLYKCSVQKLVVVISNIESGEVLERWQFDIECDKTAKDDSAPREKSQKAIQDEIRSVIEAITATVTFLPLLEVSCSFDLLIYTDKDLVVPEKWEESGPQFITNSEEVRLRSFTTTIHKVNSMVAYKIPVND
B4: GST-tagged MAD1-CTD globular subdomain (638-718 residues) (domain or fragment, human, UniProt Q9Y6D9 638-718, looked up)
chain: GYQIDITTENQYRLTSLYAEHPGDCLIFKATSPSGSKMQLLETEFSHTVGELIEVHLRRQDSIPAFLSSLTLELFSRQTVA

Holding throughout (assay): pull-down
One assay has as its target T1, His-tagged MPS1.
The target of a further assay is untagged MAD2^L13A (UniProt Q13257 2-205, L13A).
The target in assay [1] is 6×His-tagged wild type MAD2 (UniProt Q13257 2-205).
In the assay “GST-MAD1-NTD” the target is B1.

Turning to B1, the binding result with His-tagged MPS1 is “binds”. B2: the binding result (with untagged MAD2^L13A; in assay [1]) was “binds” each time. Take B3: in the assay with GST-MAD1-NTD, the binding result is “binds”. Regarding B4, in the assay with untagged MAD2^L13A, the binding result is “binds”.

For the origin of these results see doi:10.1101/212704 (bioRxiv, 2017).
